Data as given in PMC6150406, “Adding an Artificial Tail—Anchor to a Peptide-Based HIV-1 Fusion Inhibitor for Improvement of Its Potency and Resistance Profile” (Molecules : A Journal of Synthetic Chemistry and Natural …, 2017).

What was measured:
[1] = biological target: gp41 A6V (T2635-resistant HIV-1 strain) (HIV-1)
[2] = biological target: gp41 H3C (T2635-resistant HIV-1 strain) (HIV-1)
[3] = biological target: gp41 K154Q (T2635-resistant HIV-1 strain) (HIV-1)
[4] = biological target: gp41 K90E (T2635-resistant HIV-1 strain) (HIV-1)
[5] = biological target: gp41 K90E/N126K (T2635-resistant HIV-1 strain) (HIV-1)
[6] = biological target: gp41 N113E (T2635-resistant HIV-1 strain) (HIV-1)
[7] = biological target: gp41 N126K (T2635-resistant HIV-1 strain) (HIV-1)
[8] = biological target: gp41 Q66R (T2635-resistant HIV-1 strain) (HIV-1)
[9] = biological target: gp41 Q66R/N113E (T2635-resistant HIV-1 strain) (HIV-1)
[10] = biological target: gp41 Q79E (T2635-resistant HIV-1 strain) (HIV-1)
[11] = biological target: gp41 Q79E/N126K (T2635-resistant HIV-1 strain) (HIV-1)
[12] = biological target: gp41 of the wild-type virus of the T2635-resistant panel (HIV-1)
[13] = biological target: gp41 D36G/E49K/N126K (HP23-resistant HIV-1 strain) (HIV-1)
[14] = biological target: gp41 E49K (HP23-resistant HIV-1 strain) (HIV-1)
[15] = biological target: gp41 E49K/N126K (HP23-resistant HIV-1 strain) (HIV-1)
[16] = biological target: gp41 L34S/D36G/E49K/E136G (HP23-resistant HIV-1 strain) (HIV-1)
[17] = biological target: gp41 V38A (T20-resistant HIV-1 strain) (HIV-1)
[18] = biological target: gp41 V38A, N42D (T20-resistant HIV-1 strain) (HIV-1)
[19] = biological target: gp41 V38A, N42T (T20-resistant HIV-1 strain) (HIV-1)
[20] = biological target: gp41 V38E, N42S (T20-resistant HIV-1 strain) (HIV-1)
[21] = biological target: gp41 of the WT virus of the T20-resistant panel (HIV-1)
[22] = biological target: gp41 of the wild-type virus of the HP23-resistant panel (HIV-1)
[23] = biological target: NHR peptide N46 (aa 536-581 of NHR) (HIV-1) (UniProt P04578); assay: thermal denaturation followed by circular dichroism
NHR peptide N46 (aa 536-581 of NHR) (HIV-1), sequence (P04578 536-581): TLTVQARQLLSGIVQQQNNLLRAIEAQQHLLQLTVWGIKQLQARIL

[24] = biological target: NHR peptide N46 (aa 536-581 of NHR) (HIV-1) (UniProt P04578); assay: ELISA; inhibition of 6-HB formation between N46 and C34

Work on HP23 (peptide) yielded an IC50, inhibition of HIV-1 infection (p24 ELISA), T2635-resistant panel, virus A6V; blocks gp41 NHR-CHR 6-HB formation [1] of 1.6 nM, an IC50, inhibition of HIV-1 infection (p24 ELISA), T2635-resistant panel, virus H3C; blocks gp41 NHR-CHR 6-HB formation [2] of 5.4 nM and an IC50, inhibition of HIV-1 infection (p24 ELISA), T2635-resistant panel, virus K154Q; blocks gp41 NHR-CHR 6-HB formation [3] of 7.4 nM. It also gave an IC50, inhibition of HIV-1 infection (p24 ELISA), T2635-resistant panel, virus K90E; blocks gp41 NHR-CHR 6-HB formation [4] of 9.4 nM, an IC50, inhibition of HIV-1 infection (p24 ELISA), T2635-resistant panel, virus K90E/N126K; blocks gp41 NHR-CHR 6-HB formation [5] of 4.2 nM and an IC50, inhibition of HIV-1 infection (p24 ELISA), T2635-resistant panel, virus N113E; blocks gp41 NHR-CHR 6-HB formation [6] of 2.3 nM. It also gave an IC50, inhibition of HIV-1 infection (p24 ELISA), T2635-resistant panel, virus N126K; blocks gp41 NHR-CHR 6-HB formation [7] of 8.6 nM, an IC50, inhibition of HIV-1 infection (p24 ELISA), T2635-resistant panel, virus Q66R; blocks gp41 NHR-CHR 6-HB formation [8] of 2.8 nM and an IC50, inhibition of HIV-1 infection (p24 ELISA), T2635-resistant panel, virus Q66R/N113E; blocks gp41 NHR-CHR 6-HB formation [9] of 3.6 nM. The IC50, inhibition of HIV-1 infection (p24 ELISA), T2635-resistant panel, virus Q79E; blocks gp41 NHR-CHR 6-HB formation [10] was 4.2 nM, the IC50, inhibition of HIV-1 infection (p24 ELISA), T2635-resistant panel, virus Q79E/N126K; blocks gp41 NHR-CHR 6-HB formation [11] was 5.2 nM and the IC50, inhibition of HIV-1 infection (p24 ELISA), T2635-resistant panel, virus wild-type; blocks gp41 NHR-CHR 6-HB formation [12] was 2.8 nM. For the same substance, the IC50, inhibition of HIV-1 infection (p24 ELISA), HP23-resistant panel, virus D36G/E49K/N126K; blocks gp41 NHR-CHR 6-HB formation [13] was greater than 60 nM, the IC50, inhibition of HIV-1 infection (p24 ELISA), HP23-resistant panel, virus E49K; blocks gp41 NHR-CHR 6-HB formation [14] was 13.4 nM and the IC50, inhibition of HIV-1 infection (p24 ELISA), HP23-resistant panel, virus E49K/N126K; blocks gp41 NHR-CHR 6-HB formation [15] was 53.8 nM. It also gave an IC50, inhibition of HIV-1 infection (p24 ELISA), HP23-resistant panel, virus L34S/D36G/E49K/E136G; blocks gp41 NHR-CHR 6-HB formation [16] greater than 60 nM, an IC50, inhibition of HIV-1 infection (p24 ELISA), T20-resistant panel, virus V38A; blocks gp41 NHR-CHR 6-HB formation [17] of 2.1 nM and an IC50, inhibition of HIV-1 infection (p24 ELISA), T20-resistant panel, virus V38A, N42D; blocks gp41 NHR-CHR 6-HB formation [18] of 2.9 nM. The IC50, inhibition of HIV-1 infection (p24 ELISA), T20-resistant panel, virus V38A, N42T; blocks gp41 NHR-CHR 6-HB formation [19] was 1.5 nM, the IC50, inhibition of HIV-1 infection (p24 ELISA), T20-resistant panel, virus V38E, N42S; blocks gp41 NHR-CHR 6-HB formation [20] was 6.2 nM and the IC50, inhibition of HIV-1 infection (p24 ELISA), T20-resistant panel, virus WT; blocks gp41 NHR-CHR 6-HB formation [21] was 3.1 nM. It also gave an IC50, inhibition of HIV-1 infection (p24 ELISA), HP23-resistant panel, virus wild-type; blocks gp41 NHR-CHR 6-HB formation [22] of 3.3 nM and a Tm of the 6-HB formed with N46 [23] of 81 °C.
HP23 gave an IC50 [24] of 3.72 µM.
